The target in assay [1] is T1, Cynomolgus Monkey c-Met-Flis-Fc ECD (cynomolgus monkey).
T1 construct: also called Cynomolgus Monkey cMet-ECD-Fc-Flis; cynomolgus monkey c-Met ECD
The assay is described as follows: SPR Biacore, antibody captured, ECD-Fc analyte, 1:1 model. How it is done: (§1) A Biacore® 2000 instrument is used to measure the binding kinetics of c-Met antibodies to human, cynomolgus monkey, and rat c-Met ECDs. Measurements are performed at 25° C. Samples are dissolved in HBS-EP buffer (150 mM sodium chloride, 3 mM EDTA, 0.005% (w/v) surfactant P-20, and 10 mM N-2-hydroxyethylpiperazine-N′-2-ethanesulfonic acid (HEPES) at pH 7.4; #BR-1001-88).
(§2) Binding is evaluated using multiple cycles. Each cycle is performed at a flow rate of 50 μL/min., and consists of the following steps: injection of about 10 μL of a c-Met antibody at 10 μg/mL aiming at a capture of 40-100 RUs, injection of 250 μL of human, cynomolgus, or rat c-Met-Flis-Fc ECD (starting at 100 nM and using two-fold serial dilutions for each cycle) followed by 20 min. for dissociation, and regeneration using about 30 μL of 10 mM glycine hydrochloride, pH 1.5. Association and dissociation rates for each cycle are evaluated using a “1:1 (Langmuir) binding” model in the BIAevaluation software, version 4.1.
In general terms: SPR reads the build-up and loss of mass on a sensor chip optically.

Assay [2] has as its target T2, Human c-Met-Flis-Fc ECD (human).
T2 construct: also called human c-Met extracellular domain (ECD)-Fc-Flis fusion; Human cMet-ECD-Fc-Flis
Described as above. As to the method:
as §1, §2

Assay [3] deals with T2, Human c-Met-Flis-Fc ECD. Nature of the assay: ELISA, coated ECD-Fc, antibody 0.002 ng/mL. How it is done:
(§3) Wells of 96-well EIA/RIA high binding plates (Costar, #2592) are coated with 100 μL of 1 μg/mL human c-Met extracellular domain (ECD)-Fc-Flis fusion (SEQ ID NO:72), RON-ECD-Fc (R&D Systems, #1947-MS), or PlexinA2-ECD-Fc (Abnova, Taipei, Taiwan #H00005362-P01) in coating buffer (BioFX Labs, # COAT-1000-01) overnight at 4° C. […] After the plates are washed, 100 μL/well of substrate solution (BioFx, #TMBW-1000-01) are added and the plates are incubated for 10 min. at room temperature. 100 μL/well of stop solution (BioFx, # LSTP-1000-01) are added to stop the reaction. The colorimetric signals are developed and read at 450 nm using a SpectraMax 190 plate reader (Molecular Devices, Sunnyvale, Calif.). c-Met antibody binding to c-Met, RON and PlexinA2 ECDs is proportional to color signal production.
(In general: An ELISA detects its analyte on a solid surface through an enzyme-linked reagent.)

The target of the next assay is T3, PlexinA2-ECD-Fc (human, UniProt O75051 35-1237).
T3 construct: extracellular domain; Bought reagent
T3 sequence (looked up): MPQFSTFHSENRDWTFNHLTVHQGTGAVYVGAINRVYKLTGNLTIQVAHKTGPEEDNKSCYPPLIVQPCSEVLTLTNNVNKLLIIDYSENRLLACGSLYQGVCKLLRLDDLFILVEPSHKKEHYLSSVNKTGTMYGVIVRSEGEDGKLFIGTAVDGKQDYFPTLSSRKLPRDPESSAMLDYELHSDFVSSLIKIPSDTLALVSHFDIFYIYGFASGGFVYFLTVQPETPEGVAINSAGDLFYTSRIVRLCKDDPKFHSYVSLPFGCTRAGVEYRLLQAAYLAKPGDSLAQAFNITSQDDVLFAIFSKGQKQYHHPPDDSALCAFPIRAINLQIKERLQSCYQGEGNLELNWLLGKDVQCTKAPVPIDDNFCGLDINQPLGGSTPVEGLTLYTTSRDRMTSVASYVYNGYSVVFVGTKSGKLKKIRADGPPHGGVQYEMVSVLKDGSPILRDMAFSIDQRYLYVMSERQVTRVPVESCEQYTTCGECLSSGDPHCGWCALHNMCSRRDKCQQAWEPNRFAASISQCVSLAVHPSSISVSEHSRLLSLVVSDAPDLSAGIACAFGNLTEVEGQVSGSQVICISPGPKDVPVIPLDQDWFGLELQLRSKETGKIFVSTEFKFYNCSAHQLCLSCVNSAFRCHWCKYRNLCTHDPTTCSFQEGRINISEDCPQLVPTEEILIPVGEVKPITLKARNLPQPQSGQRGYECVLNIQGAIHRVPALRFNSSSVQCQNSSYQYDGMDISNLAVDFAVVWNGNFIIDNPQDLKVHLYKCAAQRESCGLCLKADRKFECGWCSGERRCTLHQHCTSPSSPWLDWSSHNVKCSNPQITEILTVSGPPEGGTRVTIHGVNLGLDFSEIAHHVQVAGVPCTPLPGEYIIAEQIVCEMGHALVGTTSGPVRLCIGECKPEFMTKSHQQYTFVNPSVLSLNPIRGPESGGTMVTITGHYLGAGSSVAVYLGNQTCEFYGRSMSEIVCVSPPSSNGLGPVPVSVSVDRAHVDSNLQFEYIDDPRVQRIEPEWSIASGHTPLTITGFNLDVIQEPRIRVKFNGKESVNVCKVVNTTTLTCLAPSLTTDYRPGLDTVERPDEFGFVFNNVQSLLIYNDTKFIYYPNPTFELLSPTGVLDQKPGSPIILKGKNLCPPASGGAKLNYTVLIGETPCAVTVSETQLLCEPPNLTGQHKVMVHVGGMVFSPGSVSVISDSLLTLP
Nature of the assay: ELISA, coated ECD-Fc, antibody 0.002 ng/mL. As to the method: as §3

T1 sequence (chain, as listed by the source limits assumed): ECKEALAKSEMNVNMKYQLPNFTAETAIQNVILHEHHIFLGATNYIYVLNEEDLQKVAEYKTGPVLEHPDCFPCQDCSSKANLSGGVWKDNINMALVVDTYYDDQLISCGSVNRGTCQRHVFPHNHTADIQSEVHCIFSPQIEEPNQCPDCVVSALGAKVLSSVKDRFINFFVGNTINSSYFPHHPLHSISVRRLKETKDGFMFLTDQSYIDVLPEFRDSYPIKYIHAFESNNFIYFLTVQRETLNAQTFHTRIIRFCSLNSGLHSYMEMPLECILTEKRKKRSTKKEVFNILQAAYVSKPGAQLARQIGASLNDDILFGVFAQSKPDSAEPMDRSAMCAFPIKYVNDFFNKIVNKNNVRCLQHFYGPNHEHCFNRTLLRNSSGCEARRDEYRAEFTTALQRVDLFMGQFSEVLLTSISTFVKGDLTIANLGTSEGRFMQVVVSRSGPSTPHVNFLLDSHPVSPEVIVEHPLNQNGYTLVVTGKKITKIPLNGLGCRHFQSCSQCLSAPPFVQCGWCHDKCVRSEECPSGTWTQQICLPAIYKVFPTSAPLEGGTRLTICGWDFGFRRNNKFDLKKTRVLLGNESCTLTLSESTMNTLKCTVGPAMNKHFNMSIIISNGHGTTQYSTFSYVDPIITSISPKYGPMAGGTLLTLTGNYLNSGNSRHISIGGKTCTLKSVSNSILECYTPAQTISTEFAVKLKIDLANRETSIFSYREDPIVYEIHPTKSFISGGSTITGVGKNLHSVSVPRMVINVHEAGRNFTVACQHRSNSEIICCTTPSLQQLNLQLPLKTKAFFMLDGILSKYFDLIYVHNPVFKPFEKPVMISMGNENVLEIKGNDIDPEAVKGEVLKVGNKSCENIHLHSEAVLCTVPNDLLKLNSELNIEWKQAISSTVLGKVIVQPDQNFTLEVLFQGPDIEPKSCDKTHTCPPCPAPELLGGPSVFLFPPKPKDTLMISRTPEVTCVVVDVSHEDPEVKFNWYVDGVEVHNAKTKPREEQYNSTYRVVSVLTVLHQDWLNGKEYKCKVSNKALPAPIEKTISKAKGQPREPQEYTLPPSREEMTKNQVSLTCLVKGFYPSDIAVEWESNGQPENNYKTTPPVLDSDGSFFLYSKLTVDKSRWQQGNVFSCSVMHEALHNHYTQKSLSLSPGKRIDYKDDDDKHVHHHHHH
T2 sequence (chain, as listed by the source limits assumed): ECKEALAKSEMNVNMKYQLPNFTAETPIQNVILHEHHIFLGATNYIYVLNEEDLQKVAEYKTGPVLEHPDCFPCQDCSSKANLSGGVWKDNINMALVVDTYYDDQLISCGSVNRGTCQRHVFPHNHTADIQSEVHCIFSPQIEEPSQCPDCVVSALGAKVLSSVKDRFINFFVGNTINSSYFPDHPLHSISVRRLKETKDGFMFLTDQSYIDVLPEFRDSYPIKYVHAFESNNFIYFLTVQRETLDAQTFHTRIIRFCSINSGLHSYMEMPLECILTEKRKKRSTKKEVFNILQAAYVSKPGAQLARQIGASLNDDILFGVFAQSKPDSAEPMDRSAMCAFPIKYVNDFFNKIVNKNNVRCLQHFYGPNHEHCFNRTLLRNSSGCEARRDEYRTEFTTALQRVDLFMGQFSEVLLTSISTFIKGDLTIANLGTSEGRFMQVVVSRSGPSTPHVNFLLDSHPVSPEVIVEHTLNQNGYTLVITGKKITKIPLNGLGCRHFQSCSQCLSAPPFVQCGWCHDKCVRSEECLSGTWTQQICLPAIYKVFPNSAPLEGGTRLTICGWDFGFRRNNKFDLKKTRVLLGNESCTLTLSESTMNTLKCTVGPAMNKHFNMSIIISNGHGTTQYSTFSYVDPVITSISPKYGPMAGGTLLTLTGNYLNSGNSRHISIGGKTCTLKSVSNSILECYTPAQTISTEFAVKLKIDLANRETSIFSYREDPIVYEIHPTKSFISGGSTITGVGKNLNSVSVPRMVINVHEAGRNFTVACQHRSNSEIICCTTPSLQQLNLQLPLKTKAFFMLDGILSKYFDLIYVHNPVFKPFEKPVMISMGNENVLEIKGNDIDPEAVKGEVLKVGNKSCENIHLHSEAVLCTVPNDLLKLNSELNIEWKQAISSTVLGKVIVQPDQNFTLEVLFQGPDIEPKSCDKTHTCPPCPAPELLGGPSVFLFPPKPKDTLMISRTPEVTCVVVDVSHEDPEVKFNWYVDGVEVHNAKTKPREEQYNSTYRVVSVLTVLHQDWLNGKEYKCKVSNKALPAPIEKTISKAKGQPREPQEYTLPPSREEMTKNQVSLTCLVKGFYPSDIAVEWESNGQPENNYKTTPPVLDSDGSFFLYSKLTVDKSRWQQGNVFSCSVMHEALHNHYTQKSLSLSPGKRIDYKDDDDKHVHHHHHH

B1: C8-6 (antibody, human IgG2, kappa, V domains shown)
VH: QVQLVQSGAEVKKPGASVKVSCKASGYTFTDYYMHWVRQAPGQGLEWMGRVNPNRGGTTYNQKFEGRVTMTTDTSTSTAYMELRSLRSDDTAVYYCARTNWLDYWGQGTTVTVSS
VL: DIQMTQSPSSLSASVGDRVTITCSVSSSVSSIYLHWYQQKPGKAPKLLIYSTSNLASGVPSRFSGSGSGTDFTLTISSLQPEDFATYYCIQYSGYPLTFGGGTKVEIKR
notes: Called IgG4, kappa; also called Mab C8-6
Usually Kd stands for the constant that tells how readily two partners part at equilibrium. What is called koff is the rate constant with which the complex falls apart. As a reminder, the kon is a measure of how fast the partners come together. For the molecule B1, in assay [1], the Kd stood at 3.6 nM, the koff stood at 0.00045 s⁻¹ and the kon came to 140000 M⁻¹ s⁻¹. Besides, in the assay with Human c-Met-Flis-Fc ECD [2], the Kd is 4 nM, the koff is 0.0003 s⁻¹ and the on-rate (kon) came to 160000 M⁻¹ s⁻¹. Also, the “Average A450 nm” value with Human c-Met-Flis-Fc ECD [3] stood at 0.326 A450 nm. For the same molecule, the “Average A450 nm” value with PlexinA2-ECD-Fc was determined as 0.099 A450 nm.

The values are drawn from patent US20100129369A1 (Eli Lilly, published 2010).
